Reference: US20170137512A1 (Ablynx, published 2017)
Like-named read-outs stand apart in the source and are kept apart here.

T1: cyno Kv1.3 (Macaca fascicularis, UniProt P22001 1-575 (human entry))
T1 chain: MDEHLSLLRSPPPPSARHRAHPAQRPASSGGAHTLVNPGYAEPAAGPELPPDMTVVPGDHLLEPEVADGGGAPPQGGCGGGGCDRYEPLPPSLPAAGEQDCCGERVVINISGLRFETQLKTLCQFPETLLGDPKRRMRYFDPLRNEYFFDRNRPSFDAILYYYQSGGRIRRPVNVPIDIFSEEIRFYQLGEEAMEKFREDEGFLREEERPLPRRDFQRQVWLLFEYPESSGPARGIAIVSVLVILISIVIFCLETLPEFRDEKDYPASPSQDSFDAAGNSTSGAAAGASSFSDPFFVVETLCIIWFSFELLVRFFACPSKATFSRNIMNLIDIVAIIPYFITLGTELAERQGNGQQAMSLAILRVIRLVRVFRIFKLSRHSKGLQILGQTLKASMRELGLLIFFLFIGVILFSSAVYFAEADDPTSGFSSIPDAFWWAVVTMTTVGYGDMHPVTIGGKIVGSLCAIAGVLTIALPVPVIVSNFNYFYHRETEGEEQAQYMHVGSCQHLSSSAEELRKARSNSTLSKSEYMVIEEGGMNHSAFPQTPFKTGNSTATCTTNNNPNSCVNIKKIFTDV

B1: A0194009G09 (VHH)
VHH: EVQLVESGGGLVQAGGSLGLSCSASGLLFSRNSAGWYRQAPGKQREFVARIRMGGSINYADTVKGRFTISRDNAKNTVYLQMNSLKPEDTAVYYCSSWRTGFYEYWGQGTLVTVSS
notes: Monovalent Nanobody of family 12; not shown: triple Flag, His6 tag
B2: A019400009 (VHH)
chain: EVQLVESGGGLVQAGGSLGLSCSASGLLFSRNSAGWYRQAPGKQREFVARIRMGGSINYADTVKGRFTISRDNAKNTVYLQMNSLKPEDTAVYYCSSWRTGFYEYWGQGTLVTVSSGGGGSGGGGSGGGGSGGGGSGGGGSGGGGSGGGGSEVQLVESGGGLVQAGGSLGLSCSASGLLFSRNSAGWYRQAPGKQREFVARIRMGGSINYADTVKGRFTISRDNAKNTVYLQMNSLKPEDTAVYYCSSWRTGFYEYWGQGTLVTVSS
B3: A019400012 (other)
chain: EVQLVESGGGLVQAGGSLGLSCSASGLLFSRNSAGWYRQAPGKQREFVARIRMGGSINYADTVKGRFTISRDNAKNTVYLQMNSLKPEDTAVYYCSSWRTGFYEYWGQGTLVTVSSGGGGSGGGGSGGGGSGGGGSGGGGSGGGGSGGGGSEVQLVESGGGLVQAGGSLSLSCTASGGTFRNFGMGWFRQAQGKEREFVAAISRTGGHTYYQDSVKGRFTISKDNAKNILSLQMNSLKPEDTAVYYCAARFRFGDGTYYYQRAFYDFWGQGTLVTVSS
B4: A019400014 (other)
chain: EVQLVESGGGLVQAGGSLSLSCTASGGTFRNFGMGWFRQAQGKEREFVAAISRTGGHTYYQDSVKGRFTISKDNAKNILSLQMNSLKPEDTAVYYCAARFRFGDGTYYYQRAFYDFWGQGTLVTVSSGGGGSGGGGSGGGGSGGGGSGGGGSGGGGSGGGGSEVQLVESGGGLVQAGGSLGLSCSASGLLFSRNSAGWYRQAPGKQREFVARIRMGGSINYADTVKGRFTISRDNAKNTVYLQMNSLKPEDTAVYYCSSWRTGFYEYWGQGTLVTVSS
notes: Biparatopic Nanobody construct (family 1 - family 12); also called A019400003-35GS-A0194009G09; A019400011
B5: A019400004 (other)
chain: EVQLVESGGGLVQAGGSLSLSCTASGGTFRNFGMGWFRQAQGKEREFVAAISRTGGHTYYQDSVKGRFTISKDNAKNILSLQMNSLKPEDTAVYYCAARFRFGDGTYYYQRAFYDFWGQGTQVTVSSGGGGSGGGGSGGGGSGGGGSGGGGSGGGGSGGGGSGGGGSEVQLVESGGGLVQAGGSLSLSCTASGGTFRNFGMGWFRQAQGKEREFVAAISRTGGHTYYQDSVKGRFTISKDNAKNILSLQMNSLKPEDTAVYYCAARFRFGDGTYYYQRAFYDFWGQGTQVTVSS
notes: Bivalent Nanobody construct (family 1 - family 1), expressed in Pichia; also called A019400003-40GS-A019400003
B6: A019400015 (VHH)
chain: EVQLVESGGGLVQAGGSLGLSCSASGLLFSRNSAGWYRQAPGKQREFVARIRMGGSINYADTVKGRFTISRDNAKNTVYLQMNSLKPEDTAVYYCSSWRTGFYEYWGQGTLVTVSSGGGGSGGGGSGGGGSGGGGSGGGGSGGGGSGGGGSEVQLVESGGGLVQAGGSLGLSCSASGLLFSRNSAGWYRQAPGKQREFVARIRMGGSINYADTVKGRFTISRDNAKNTVYLQMNSLKPEDTAVYYCSSWRTGFYEYWGQGTLVTVSSGGGGSGGGGSGGGGSGGGGSGGGGSGGGGSGGGGSEVQLVESGGGLVQAGGSLGLSCSASGLLFSRNSAGWYRQAPGKQREFVARIRMGGSINYADTVKGRFTISRDNAKNTVYLQMNSLKPEDTAVYYCSSWRTGFYEYWGQGTLVTVSS
notes: Trivalent Nanobody construct (family 12); also called A0194009G09-35GS-A0194009G09-35GS-A0194009G09
B7: A019400032 (VHH)
chain: DVQLVESGGGLVQAGGSLGLSCSASGLLFSRNSAGWYRQAPGKRREFVARIRMGGSINYADSVKGRFTVSRDNAKNMMYLQMNDLKPEDTAVYFCSGWREGFYEYWGQGTLVTVSSGGGGSGGGGSGGGGSGGGGSGGGGSGGGGSGGGGSEVQLVESGGGLVQAGGSLGLSCSASGLLFSRNSAGWYRQAPGKRREFVARIRMGGSINYADSVKGRFTVSRDNAKNMMYLQMNDLKPEDTAVYFCSGWREGFYEYWGQGTLVTVSS
B8: A019400013 (VHH)
chain: B2 chain
notes: Bivalent Nanobody construct (family 12 - family 12), without Alb11; also called A0194009G09-35GS-A0194009G09
B9: A019400003 (VHH)
VHH: EVQLVESGGGLVQAGGSLSLSCTASGGTFRNFGMGWFRQAQGKEREFVAAISRTGGHTYYQDSVKGRFTISKDNAKNILSLQMNSLKPEDTAVYYCAARFRFGDGTYYYQRAFYDFWGQGTQVTVSS
notes: Monovalent Nanobody of family 1, purified from E. coli TG1; not shown: triple Flag, His6 tag

How the values were obtained:
cyno Kv1.3 [1] = target: T1, cyno Kv1.3
human Kv1.3 [2] = target: T2, human Kv1.3 (Homo sapiens, UniProt P22001 1-575)
T2 sequence (P22001 whole entry): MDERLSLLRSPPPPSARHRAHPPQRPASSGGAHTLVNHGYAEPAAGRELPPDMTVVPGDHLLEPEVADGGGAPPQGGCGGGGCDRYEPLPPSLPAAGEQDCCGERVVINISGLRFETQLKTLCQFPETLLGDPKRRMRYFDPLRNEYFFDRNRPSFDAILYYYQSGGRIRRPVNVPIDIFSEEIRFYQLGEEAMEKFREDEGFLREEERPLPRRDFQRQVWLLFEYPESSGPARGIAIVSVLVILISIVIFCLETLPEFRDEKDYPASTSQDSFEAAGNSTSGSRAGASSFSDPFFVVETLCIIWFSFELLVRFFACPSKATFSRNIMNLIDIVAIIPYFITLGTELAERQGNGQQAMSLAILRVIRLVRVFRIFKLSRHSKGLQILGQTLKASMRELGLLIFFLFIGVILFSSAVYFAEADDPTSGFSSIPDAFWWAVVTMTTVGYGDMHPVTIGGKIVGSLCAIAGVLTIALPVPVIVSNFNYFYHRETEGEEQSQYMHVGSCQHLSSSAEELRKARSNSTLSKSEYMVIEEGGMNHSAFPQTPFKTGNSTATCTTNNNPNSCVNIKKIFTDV

human Kv1.3 [3] = target: T2, human Kv1.3; experiment: cell-based or functional assay
human Kv1.3 [4] = target: T2, human Kv1.3; experiment: cell-based or functional assay; remark: listed apart in the source
human Kv1.3 [5] = target: T2, human Kv1.3; experiment: cell-based or functional assay; remark: listed apart in the source
rat Kv1.3 [6] = target: T3, rat Kv1.3 (Rattus norvegicus, UniProt P15384 1-525); experiment: FACS, CHO cells expressing rat Kv1.3
T3 construct: Expressed on CHO cells

cyno Kv1.3 [7] = target: T1, cyno Kv1.3; experiment: FACS, CHO cells expressing cyno Kv1.3
human Kv1.3 [8] = target: T2, human Kv1.3; experiment: FACS, CHO cells expressing human Kv1.3
human Kv1.3 [9] = target: T2, human Kv1.3; experiment: cell-based or functional assay; remark: listed apart in the source
human Kv1.3 [10] = target: T2, human Kv1.3; experiment: cell-based or functional assay; remark: listed apart in the source
cyno Kv1.3 [11] = target: T1, cyno Kv1.3
human Kv1.3 [12] = target: T2, human Kv1.3; experiment: cell-based or functional assay; remark: listed apart in the source
rat Kv1.3 [13] = target: T3, rat Kv1.3; experiment: FACS, CHO cells expressing rat Kv1.3; remark: listed apart in the source
cyno Kv1.3 [14] = target: T1, cyno Kv1.3; experiment: FACS, CHO cells expressing cyno Kv1.3
human Kv1.3 [15] = target: T2, human Kv1.3; experiment: FACS, CHO cells expressing human Kv1.3; remark: listed apart in the source
human Kv1.3 [16] = target: T2, human Kv1.3; experiment: cell-based or functional assay; remark: listed apart in the source
rat Kv1.3 [17] = target: T3, rat Kv1.3; experiment: FACS, CHO cells expressing rat Kv1.3; remark: listed apart in the source
cyno Kv1.3 [18] = target: T1, cyno Kv1.3; experiment: FACS, CHO cells expressing cyno Kv1.3
rat Kv1.3 [19] = target: T3, rat Kv1.3; experiment: FACS, CHO cells expressing rat Kv1.3, with 50 µM HSA
cyno Kv1.3 [20] = target: T1, cyno Kv1.3; experiment: FACS, CHO cells expressing cyno Kv1.3, with 50 µM HSA

Binder | Average IC50, Kv1.3 current, IonFlux automated patch clamp, HEK293H cells (human Kv1.3 [9]) [nM] | Average IC50, Kv1.3 current, IonWorks perforated patch clamp, CHL cells (human Kv1.3 [10]) [nM] | IC50 (cyno Kv1.3 [11]) [nM] | IC50, CD25 read out, CCR7-CD45RA- T cells stimulated with anti-CD3 (human Kv1.3 [12]) [nM] | IC50, IFNγ read out, CCR7-CD45RA- T cells stimulated with anti-CD3 (human Kv1.3 [12]) [nM] | EC50 (rat Kv1.3 [13]) [nM] | EC50 (cyno Kv1.3 [14]) [nM] | EC50 (human Kv1.3 [15]) [nM] | further results
B1 |  |  |  |  |  |  |  |  | IC50 (cyno Kv1.3 [1]): 9.8 nM; IC50 (read off the curve) (human Kv1.3 [2]): ~10 nM; Average IC50, Kv1.3 current, IonFlux automated patch clamp, HEK293H cells (human Kv1.3 [3]): 8.2 nM; Average IC50, Kv1.3 current, IonWorks perforated patch clamp, CHL cells (human Kv1.3 [4]): 37 nM; IC50, CD25 read out, CCR7-CD45RA- T cells stimulated with anti-CD3 (human Kv1.3 [5]): 62 nM; IC50, IFNγ read out, CCR7-CD45RA- T cells stimulated with anti-CD3 (human Kv1.3 [5]): 47 nM; EC50 (rat Kv1.3 [6]): 240 nM; EC50 (cyno Kv1.3 [7]): 11 nM; EC50 (human Kv1.3 [8]): 7.9 nM
B2 | 0.73 | 0.81 |  |  |  |  |  |  | 
B3 | 4.2 | 4.2 | 0.5 | 0.31 | 0.31 |  |  |  | 
B4 | 14 | 14 | 0.61 | 0.11 | 0.32 | 0.74 | 0.41 | 1.1 | 
B5 |  | > 1000 | 0.64 |  |  | 1.1 | 0.44 | 2.2 | 
B6 |  | 0.8 | 0.2 | 0.059 | 0.032 | 0.44 | 0.31 | 0.66 | 
B7 |  | 1.2 | 0.56 | 0.12 | 0.069 |  |  |  | IC50, CD25 read out, T cell activation assay (human Kv1.3 [16]): 0.12 nM; IC50, CD25 read out, T cell activation assay, with 10 µM HSA (human Kv1.3 [16]): 0.33 nM; IC50, IFNγ read out, T cell activation assay (human Kv1.3 [16]): 0.069 nM; IC50, IFNγ read out, T cell activation assay, with 10 µM HSA (human Kv1.3 [16]): 0.086 nM
B8 |  |  | 0.66 | 0.12 | 0.083 | 0.49 | 0.24 | 0.32 | IC50, CD25 read out, T cell activation assay (human Kv1.3 [16]): 0.12 nM; IC50, CD25 read out, T cell activation assay, with 10 µM HSA (human Kv1.3 [16]): 0.037 nM; IC50, IFNγ read out, T cell activation assay (human Kv1.3 [16]): 0.083 nM; IC50, IFNγ read out, T cell activation assay, with 10 µM HSA (human Kv1.3 [16]): 0.031 nM; EC50 (rat Kv1.3 [17]): 0.704 nM; EC50 (cyno Kv1.3 [18]): 0.33 nM; EC50 (rat Kv1.3 [19]): 0.85 nM; EC50 (cyno Kv1.3 [20]): 0.45 nM
B9 |  |  |  |  |  |  |  |  | IC50 (cyno Kv1.3 [1]): 1.3 nM; IC50 (read off the curve) (human Kv1.3 [2]): ~30 nM; Average IC50, Kv1.3 current, IonWorks perforated patch clamp, CHL cells (human Kv1.3 [4]): > 1000 nM; EC50 (rat Kv1.3 [6]): 380 nM; EC50 (cyno Kv1.3 [7]): 2.5 nM; EC50 (human Kv1.3 [8]): 6.2 nM
